Test results taken from PMC4360782, “A new high-performance heterologous fungal expression system based on regulatory elements from the Aspergillus terreus terrein gene cluster”.

What was measured:
TerR43-138 [1] = target: T1, TerR43-138 (Aspergillus terreus SBUG844, UniProt Q0D1P5 43-138); assay: SPR; molar ratio 0.88; SPR (Biacore 2000, SA-coated CM3 chip): 10 mM HEPES pH 7.4, 150 mM NaCl, 0.005% P20, 5 mM beta-mercaptoethanol, 1 uM ZnCl2, 25 C; protein 12.5-6400 nM; 1:1 model with mass transport; details: protein: recombinant; (pET-29a; mass used 10218 Da); label: biotin on one strand; 18 bp duplex
T1 sequence: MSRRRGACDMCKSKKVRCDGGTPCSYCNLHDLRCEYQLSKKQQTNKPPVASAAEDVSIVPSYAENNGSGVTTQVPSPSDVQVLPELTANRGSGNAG

TerR35-138 [2] = target: T2, TerR35-138 (Aspergillus terreus SBUG844, UniProt Q0D1P5 35-138); assay: SPR; molar ratio 1.14; SPR (Biacore 2000, SA-coated CM3 chip): 10 mM HEPES pH 7.4, 150 mM NaCl, 0.005% P20, 5 mM beta-mercaptoethanol, 1 uM ZnCl2, 25 C; protein 12.5-6400 nM; 1:1 model with mass transport; details: protein: recombinant; (pET-29a; theoretical mass 11.35 kDa); label: biotin on one strand; 18 bp duplex
T2 sequence: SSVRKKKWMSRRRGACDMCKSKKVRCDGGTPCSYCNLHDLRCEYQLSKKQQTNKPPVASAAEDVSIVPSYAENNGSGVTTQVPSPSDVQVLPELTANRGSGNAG

TerR43-138 [3] = target: T1, TerR43-138; assay: SPR; molar ratio 1.06; SPR (Biacore 2000, SA-coated CM3 chip): 10 mM HEPES pH 7.4, 150 mM NaCl, 0.005% P20, 5 mM beta-mercaptoethanol, 1 uM ZnCl2, 25 C; protein 12.5-6400 nM; 1:1 model with mass transport; details: protein: recombinant; (pET-29a; mass used 10218 Da); label: biotin on one strand; 18 bp duplex
TerR35-138 [4] = target: T2, TerR35-138; assay: SPR; molar ratio 1.17; SPR (Biacore 2000, SA-coated CM3 chip): 10 mM HEPES pH 7.4, 150 mM NaCl, 0.005% P20, 5 mM beta-mercaptoethanol, 1 uM ZnCl2, 25 C; protein 12.5-6400 nM; 1:1 model with mass transport; details: protein: recombinant; (pET-29a; theoretical mass 11.35 kDa); label: biotin on one strand; 18 bp duplex
TerR35-138 [5] = target: T2, TerR35-138; assay: SPR; molar ratio 1.93; SPR (Biacore 2000, SA-coated CM3 chip): 10 mM HEPES pH 7.4, 150 mM NaCl, 0.005% P20, 5 mM beta-mercaptoethanol, 1 uM ZnCl2, 25 C; protein 12.5-6400 nM; 1:1 model with mass transport; details: protein: recombinant; (pET-29a; theoretical mass 11.35 kDa); label: biotin on one strand; 18 bp duplex
TerR35-138 [6] = target: T2, TerR35-138; assay: SPR; molar ratio 1.62; SPR (Biacore 2000, SA-coated CM3 chip): 10 mM HEPES pH 7.4, 150 mM NaCl, 0.005% P20, 5 mM beta-mercaptoethanol, 1 uM ZnCl2, 25 C; protein 12.5-6400 nM; 1:1 model with mass transport; details: protein: recombinant; (pET-29a; theoretical mass 11.35 kDa); label: biotin on one strand; 18 bp duplex
TerR43-138 [7] = target: T1, TerR43-138; assay: SPR; molar ratio 1.04; SPR (Biacore 2000, SA-coated CM3 chip): 10 mM HEPES pH 7.4, 150 mM NaCl, 0.005% P20, 5 mM beta-mercaptoethanol, 1 uM ZnCl2, 25 C; protein 12.5-6400 nM; 1:1 model with mass transport; details: protein: recombinant; (pET-29a; mass used 10218 Da); label: biotin on one strand; 18 bp duplex
TerR35-138 [8] = target: T2, TerR35-138; assay: SPR; molar ratio 1.87; SPR (Biacore 2000, SA-coated CM3 chip): 10 mM HEPES pH 7.4, 150 mM NaCl, 0.005% P20, 5 mM beta-mercaptoethanol, 1 uM ZnCl2, 25 C; protein 12.5-6400 nM; 1:1 model with mass transport; details: protein: recombinant; (pET-29a; theoretical mass 11.35 kDa); label: biotin on one strand; 18 bp duplex
TerR43-138 [9] = target: T1, TerR43-138; assay: SPR; molar ratio 0.85; SPR (Biacore 2000, SA-coated CM3 chip): 10 mM HEPES pH 7.4, 150 mM NaCl, 0.005% P20, 5 mM beta-mercaptoethanol, 1 uM ZnCl2, 25 C; protein 12.5-6400 nM; 1:1 model with mass transport; details: protein: recombinant; (pET-29a; mass used 10218 Da); label: biotin on one strand; 18 bp duplex
TerR35-138 [10] = target: T2, TerR35-138; assay: SPR; molar ratio 0.92; SPR (Biacore 2000, SA-coated CM3 chip): 10 mM HEPES pH 7.4, 150 mM NaCl, 0.005% P20, 5 mM beta-mercaptoethanol, 1 uM ZnCl2, 25 C; protein 12.5-6400 nM; 1:1 model with mass transport; details: protein: recombinant; (pET-29a; theoretical mass 11.35 kDa); label: biotin on one strand; 18 bp duplex
TerR35-138 [11] = target: T2, TerR35-138; assay: SPR; molar ratio 0.95; SPR (Biacore 2000, SA-coated CM3 chip): 10 mM HEPES pH 7.4, 150 mM NaCl, 0.005% P20, 5 mM beta-mercaptoethanol, 1 uM ZnCl2, 25 C; protein 12.5-6400 nM; 1:1 model with mass transport; details: protein: recombinant; (pET-29a; theoretical mass 11.35 kDa); label: biotin on one strand; 18 bp duplex
TerR35-138 [12] = target: T2, TerR35-138; assay: SPR; molar ratio 1.19; SPR (Biacore 2000, SA-coated CM3 chip): 10 mM HEPES pH 7.4, 150 mM NaCl, 0.005% P20, 5 mM beta-mercaptoethanol, 1 uM ZnCl2, 25 C; protein 12.5-6400 nM; 1:1 model with mass transport; details: protein: recombinant; (pET-29a; theoretical mass 11.35 kDa); label: biotin on one strand; 18 bp duplex
TerR43-138 [13] = target: T1, TerR43-138; assay: SPR; molar ratio 0.92; SPR (Biacore 2000, SA-coated CM3 chip): 10 mM HEPES pH 7.4, 150 mM NaCl, 0.005% P20, 5 mM beta-mercaptoethanol, 1 uM ZnCl2, 25 C; protein 12.5-6400 nM; 1:1 model with mass transport; details: protein: recombinant; (pET-29a; mass used 10218 Da); label: biotin on one strand; 18 bp duplex
TerR35-138 [14] = target: T2, TerR35-138; assay: SPR; molar ratio 1.51; SPR (Biacore 2000, SA-coated CM3 chip): 10 mM HEPES pH 7.4, 150 mM NaCl, 0.005% P20, 5 mM beta-mercaptoethanol, 1 uM ZnCl2, 25 C; protein 12.5-6400 nM; 1:1 model with mass transport; details: protein: recombinant; (pET-29a; theoretical mass 11.35 kDa); label: biotin on one strand; 18 bp duplex
TerR35-138 [15] = target: T2, TerR35-138; assay: SPR; molar ratio 1.25; SPR (Biacore 2000, SA-coated CM3 chip): 10 mM HEPES pH 7.4, 150 mM NaCl, 0.005% P20, 5 mM beta-mercaptoethanol, 1 uM ZnCl2, 25 C; protein 12.5-6400 nM; 1:1 model with mass transport; details: protein: recombinant; (pET-29a; theoretical mass 11.35 kDa); label: biotin on one strand; 18 bp duplex
TerR43-138 [16] = target: T1, TerR43-138; assay: SPR; molar ratio 0.91; SPR (Biacore 2000, SA-coated CM3 chip): 10 mM HEPES pH 7.4, 150 mM NaCl, 0.005% P20, 5 mM beta-mercaptoethanol, 1 uM ZnCl2, 25 C; protein 12.5-6400 nM; 1:1 model with mass transport; details: protein: recombinant; (pET-29a; mass used 10218 Da); label: biotin on one strand; 18 bp duplex
TerR35-138 [17] = target: T2, TerR35-138; assay: SPR; molar ratio 1.74; SPR (Biacore 2000, SA-coated CM3 chip): 10 mM HEPES pH 7.4, 150 mM NaCl, 0.005% P20, 5 mM beta-mercaptoethanol, 1 uM ZnCl2, 25 C; protein 12.5-6400 nM; 1:1 model with mass transport; details: protein: recombinant; (pET-29a; theoretical mass 11.35 kDa); label: biotin on one strand; 18 bp duplex
TerR35-138 [18] = target: T2, TerR35-138; assay: SPR; molar ratio 1.38; SPR (Biacore 2000, SA-coated CM3 chip): 10 mM HEPES pH 7.4, 150 mM NaCl, 0.005% P20, 5 mM beta-mercaptoethanol, 1 uM ZnCl2, 25 C; protein 12.5-6400 nM; 1:1 model with mass transport; details: protein: recombinant; (pET-29a; theoretical mass 11.35 kDa); label: biotin on one strand; 18 bp duplex
TerR43-138 [19] = target: T1, TerR43-138; assay: SPR; molar ratio 0.95; SPR (Biacore 2000, SA-coated CM3 chip): 10 mM HEPES pH 7.4, 150 mM NaCl, 0.005% P20, 5 mM beta-mercaptoethanol, 1 uM ZnCl2, 25 C; protein 12.5-6400 nM; 1:1 model with mass transport; details: protein: recombinant; (pET-29a; mass used 10218 Da); label: biotin on one strand; 18 bp duplex
TerR35-138 [20] = target: T2, TerR35-138; assay: SPR; molar ratio 1.12; SPR (Biacore 2000, SA-coated CM3 chip): 10 mM HEPES pH 7.4, 150 mM NaCl, 0.005% P20, 5 mM beta-mercaptoethanol, 1 uM ZnCl2, 25 C; protein 12.5-6400 nM; 1:1 model with mass transport; details: protein: recombinant; (pET-29a; theoretical mass 11.35 kDa); label: biotin on one strand; 18 bp duplex

B1: BS4 (dsDNA)
DNA 1: TCTTCGGCAATACGGACT
DNA 2: AGTCCGTATTGCCGAAGA
Kd (TerR43-138 [1]): 1070 ± 60 nM | Kd (TerR35-138 [2]): 65.6 ± 0.6 nM

B2: BS8 (dsDNA)
DNA 1: CGGGCGGTTAGGCGGCAT
DNA 2: ATGCCGCCTAACCGCCCG
Kd (TerR43-138 [3]): 17200 ± 500 nM | Kd (TerR35-138 [4]): 286 ± 2 nM

B3: BS2m1 (5'-CGG to CAA) (dsDNA)
DNA 1: TTATCAAACTTTCGGATT
DNA 2: AATCCGAAAGTTTGATAA
Kd (TerR35-138 [5]): 5780 ± 60 nM

B4: BS2 (dsDNA)
DNA 1: TTATCGGACTTTCGGATT
DNA 2: AATCCGAAAGTCCGATAA
Kd (TerR35-138 [6]): 536 ± 3 nM | Kd (TerR43-138 [7]): 3730 ± 30 nM

B5: BS5 (dsDNA)
DNA 1: GGGGCGGCTCCTCGGTAC
DNA 2: GTACCGAGGAGCCGCCCC
Kd (TerR35-138 [8]): 1530 ± 60 nM

B6: BS6 (dsDNA)
DNA 1: CTCTCGGAAACTCGGAAA
DNA 2: TTTCCGAGTTTCCGAGAG
Kd (TerR35-138 [6]): 150 ± 1 nM | Kd (TerR43-138 [9]): 2050 ± 90 nM

B7: BS7m (second CGG half-site mutated) (dsDNA)
DNA 1: ACTTCGGCTATCCAATTA
DNA 2: TAATTGGATAGCCGAAGT
Kd (TerR35-138 [10]): 25.3 ± 0.2 nM

B8: BS2m2 (3'-CGG to CAA) (dsDNA)
DNA 1: TTATCGGACTTTCAAATT
DNA 2: AATTTGAAAGTCCGATAA
Kd (TerR35-138 [11]): 363 ± 2 nM

B9: BS4m2 (C directly after 5'-CGG to G) (dsDNA)
DNA 1: TCTTCGGGAATACGGACT
DNA 2: AGTCCGTATTCCCGAAGA
Kd (TerR43-138 [1]): 1370 ± 50 nM | Kd (TerR35-138 [12]): 155 ± 1 nM

B10: BS9 (dsDNA)
DNA 1: GCTTCGGTAATTCGGTAA
DNA 2: TTACCGAATTACCGAAGC
Kd (TerR43-138 [13]): 820 ± 4 nM | Kd (TerR35-138 [14]): 41 ± 0.4 nM

B11: BS7 (dsDNA)
DNA 1: ACTTCGGCTATCCGGTTA
DNA 2: TAACCGGATAGCCGAAGT
Kd (TerR35-138 [15]): 26.5 ± 0.3 nM | Kd (TerR43-138 [16]): 591 ± 2 nM

B12: BS3 (dsDNA)
DNA 1: GAGACGGAAACTCGGGTT
DNA 2: AACCCGAGTTTCCGTCTC
Kd (TerR35-138 [17]): 676 ± 3 nM

B13: BS4m1 (TT before 5'-CGG to GG) (dsDNA)
DNA 1: TGGGCGGCAATACGGACT
DNA 2: AGTCCGTATTGCCGCCCA
Kd (TerR35-138 [18]): 429 ± 2 nM | Kd (TerR43-138 [19]): 9300 ± 1000 nM

B14: BS1 (dsDNA)
DNA 1: GAGTCGGCATTACGGCGG
DNA 2: CCGCCGTAATGCCGACTC
Kd (TerR35-138 [20]): 527 ± 3 nM
